From patent US20100015600A1

Target: CD66c receptor (human (patients' ileal enterocytes)) (UniProt P40199)
Assay: cell-based or functional assay

UniProt P40199, sequence (P40199 35-320): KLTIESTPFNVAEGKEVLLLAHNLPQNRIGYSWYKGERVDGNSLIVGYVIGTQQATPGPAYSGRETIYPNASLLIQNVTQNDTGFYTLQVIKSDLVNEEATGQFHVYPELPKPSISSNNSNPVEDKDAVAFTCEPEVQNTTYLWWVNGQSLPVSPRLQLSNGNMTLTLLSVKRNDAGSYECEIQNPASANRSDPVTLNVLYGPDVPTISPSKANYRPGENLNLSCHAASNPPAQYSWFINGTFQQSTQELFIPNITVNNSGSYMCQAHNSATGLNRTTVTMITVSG

**Q.** Which results are given for “type 1 pili (adhesin FimH) of the E. coli AIEC strain LF82”?
**A.** Adhesion to the enterocytes, no antibody (adhesion index), patient F (bacteria adhering per enterocyte): 1.45; Adhesion to the enterocytes, no antibody (adhesion index), patient G (bacteria adhering per enterocyte): 1.15; Adhesion to the enterocytes, no antibody (adhesion index), patient H (bacteria adhering per enterocyte): 1.02; Adhesion to the enterocytes, no antibody (adhesion index), patient I (bacteria adhering per enterocyte): 1.28
